# Laboratory results reported in patent US20240269230A1.
# Ends that are not written are not given here.
# B1: [T20K]-kalata B1 (peptide)
# peptide: GLPVCGETCVGGTCNTPGCKCSWPVCTRN
# modifications: not fully specified (bridges); ends and bridges not checked
# Tests used:
# [1] = molecular target: T1, kappa opioid receptor (the kOR), mouse, with C-terminal GFP (the kOR-EGFP) (mouse), P33534
# T1 chain: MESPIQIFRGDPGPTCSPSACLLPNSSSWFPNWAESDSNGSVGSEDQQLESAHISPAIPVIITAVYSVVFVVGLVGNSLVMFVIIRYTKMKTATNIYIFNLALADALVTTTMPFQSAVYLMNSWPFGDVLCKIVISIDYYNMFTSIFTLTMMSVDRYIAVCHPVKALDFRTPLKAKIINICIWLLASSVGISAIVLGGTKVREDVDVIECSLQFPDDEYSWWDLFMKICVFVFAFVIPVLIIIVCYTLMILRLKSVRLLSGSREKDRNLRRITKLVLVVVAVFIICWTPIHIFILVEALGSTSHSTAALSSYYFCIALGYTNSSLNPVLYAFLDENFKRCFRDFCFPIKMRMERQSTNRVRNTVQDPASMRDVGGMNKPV
# [2] = molecular target: T1, kappa opioid receptor (the kOR), mouse, …; assay: cell-based or functional assay
binder,measurement,setting,value
B1,Ki,[1],2.7 µM
same,cAMP assay EC50 (HEK293 cells stably expressing the kOR),[2],17 µM
same,"leftward shift in the cAMP potency of the orthosteric ligand U50,488",[2],9 fold
